Consider 16 molecules from patent US20240391954A1, “MC4R AGONIST PEPTIDES” (The Regents of the University of Michigan, priority 2021, published 2024).

To fix the notation:
B1: CTX-1645 (peptide)
peptide: {CH2CO}-GR[dF]RWC-NH2
modifications: thioether N-6
SMILES: N=C(N)NCCC[C@@H]1NC(=O)CNC(=O)CSC[C@@H](C(N)=O)NC(=O)[C@H](Cc2c[nH]c3ccccc23)NC(=O)[C@H](CCCNC(=N)N)NC(=O)[C@@H](Cc2ccccc2)NC1=O
B2: CTX-1642 (peptide)
peptide: {CH2CO}-[dA]R[dF]RWC-NH2
modifications: thioether N-6
SMILES: C[C@H]1NC(=O)CSC[C@@H](C(N)=O)NC(=O)[C@H](Cc2c[nH]c3ccccc23)NC(=O)[C@H](CCCNC(=N)N)NC(=O)[C@@H](Cc2ccccc2)NC(=O)[C@H](CCCNC(=N)N)NC1=O
B3: CTX-1647 (peptide)
peptide: {CH2CO}-[Aib]H[dF]RWC-NH2
modifications: thioether N-6
SMILES: CC1(C)NC(=O)CSC[C@@H](C(N)=O)NC(=O)[C@H](Cc2c[nH]c3ccccc23)NC(=O)[C@H](CCCNC(=N)N)NC(=O)[C@@H](Cc2ccccc2)NC(=O)[C@H](Cc2c[nH]cn2)NC1=O
B4: CTX-1630 (peptide)
peptide: Ac-CG[Cit][dF]RWC-NH2
modifications: disulfide 1-7
SMILES: CC(=O)N[C@H]1CSSC[C@@H](C(N)=O)NC(=O)[C@H](Cc2c[nH]c3ccccc23)NC(=O)[C@H](CCCNC(=N)N)NC(=O)[C@@H](Cc2ccccc2)NC(=O)[C@H](CCCNC(N)=O)NC(=O)CNC1=O
B5: CTX-1635 (peptide)
peptide: Ac-C[Aib]R[dF]RFC-NH2
modifications: disulfide 1-7
SMILES: CC(=O)N[C@H]1CSSC[C@@H](C(N)=O)NC(=O)[C@H](Cc2ccccc2)NC(=O)[C@H](CCCNC(=N)N)NC(=O)[C@@H](Cc2ccccc2)NC(=O)[C@H](CCCNC(=N)N)NC(=O)C(C)(C)NC1=O
B6: CTX-1639 (peptide)
peptide: Ac-CG[Cit][dF]RFC-NH2
modifications: disulfide 1-7
SMILES: CC(=O)N[C@H]1CSSC[C@@H](C(N)=O)NC(=O)[C@H](Cc2ccccc2)NC(=O)[C@H](CCCNC(=N)N)NC(=O)[C@@H](Cc2ccccc2)NC(=O)[C@H](CCCNC(N)=O)NC(=O)CNC1=O
B7: CTX-1646 (peptide)
peptide: {CH2CO}-G[Cit][dF]RWC-NH2
modifications: thioether N-6
SMILES: N=C(N)NCCC[C@@H]1NC(=O)[C@@H](Cc2ccccc2)NC(=O)[C@H](CCCNC(N)=O)NC(=O)CNC(=O)CSC[C@@H](C(N)=O)NC(=O)[C@H](Cc2c[nH]c3ccccc23)NC1=O
B8: CTX-1644 (peptide)
peptide: {CH2CO}-GH[dF]RWC-NH2
modifications: thioether N-6
SMILES: N=C(N)NCCC[C@@H]1NC(=O)[C@@H](Cc2ccccc2)NC(=O)[C@H](Cc2c[nH]cn2)NC(=O)CNC(=O)CSC[C@@H](C(N)=O)NC(=O)[C@H](Cc2c[nH]c3ccccc23)NC1=O
B9: CTX-1643 (peptide)
peptide: {CH2CO}-[dA][Cit][dF]RWC-NH2
modifications: thioether N-6
SMILES: C[C@H]1NC(=O)CSC[C@@H](C(N)=O)NC(=O)[C@H](Cc2c[nH]c3ccccc23)NC(=O)[C@H](CCCNC(=N)N)NC(=O)[C@@H](Cc2ccccc2)NC(=O)[C@H](CCCNC(N)=O)NC1=O
B10: CTX-1632 (peptide)
peptide: Ac-C[Aib]R[dF]RWC-NH2
modifications: disulfide 1-7
SMILES: CC(=O)N[C@H]1CSSC[C@@H](C(N)=O)NC(=O)[C@H](Cc2c[nH]c3ccccc23)NC(=O)[C@H](CCCNC(=N)N)NC(=O)[C@@H](Cc2ccccc2)NC(=O)[C@H](CCCNC(=N)N)NC(=O)C(C)(C)NC1=O
B11: CTX-1628 (peptide)
peptide: Ac-C[dA][Cit][dF]RWC-NH2
modifications: disulfide 1-7
SMILES: CC(=O)N[C@H]1CSSC[C@@H](C(N)=O)NC(=O)[C@H](Cc2c[nH]c3ccccc23)NC(=O)[C@H](CCCNC(=N)N)NC(=O)[C@@H](Cc2ccccc2)NC(=O)[C@H](CCCNC(N)=O)NC(=O)[C@@H](C)NC1=O
B12: CTX-1638 (peptide)
peptide: Ac-CGR[dF]RFC-NH2
modifications: disulfide 1-7
SMILES: CC(=O)N[C@H]1CSSC[C@@H](C(N)=O)NC(=O)[C@H](Cc2ccccc2)NC(=O)[C@H](CCCNC(=N)N)NC(=O)[C@@H](Cc2ccccc2)NC(=O)[C@H](CCCNC(=N)N)NC(=O)CNC1=O
B13: CTX-1634 (peptide)
peptide: Ac-C[Aib]H[dF]RFC-NH2
modifications: disulfide 1-7
SMILES: CC(=O)N[C@H]1CSSC[C@@H](C(N)=O)NC(=O)[C@H](Cc2ccccc2)NC(=O)[C@H](CCCNC(=N)N)NC(=O)[C@@H](Cc2ccccc2)NC(=O)[C@H](Cc2c[nH]cn2)NC(=O)C(C)(C)NC1=O
B14: CTX-1633 (peptide)
peptide: Ac-C[Aib][Cit][dF]RWC-NH2
modifications: disulfide 1-7
SMILES: CC(=O)N[C@H]1CSSC[C@@H](C(N)=O)NC(=O)[C@H](Cc2c[nH]c3ccccc23)NC(=O)[C@H](CCCNC(=N)N)NC(=O)[C@@H](Cc2ccccc2)NC(=O)[C@H](CCCNC(N)=O)NC(=O)C(C)(C)NC1=O
B15: CTX-1629 (peptide)
peptide: Ac-CGR[dF]RWC-NH2
modifications: disulfide 1-7
SMILES: CC(=O)N[C@H]1CSSC[C@@H](C(N)=O)NC(=O)[C@H](Cc2c[nH]c3ccccc23)NC(=O)[C@H](CCCNC(=N)N)NC(=O)[C@@H](Cc2ccccc2)NC(=O)[C@H](CCCNC(=N)N)NC(=O)CNC1=O
B16: CTX-1636 (peptide)
peptide: Ac-C[Aib][Cit][dF]RFC-NH2
modifications: disulfide 1-7
SMILES: CC(=O)N[C@H]1CSSC[C@@H](C(N)=O)NC(=O)[C@H](Cc2ccccc2)NC(=O)[C@H](CCCNC(=N)N)NC(=O)[C@@H](Cc2ccccc2)NC(=O)[C@H](CCCNC(N)=O)NC(=O)C(C)(C)NC1=O

Positions of bridges follow the written chain, without caps; N, C: chain ends. Non-standard residues stand in square brackets, D forms with d. Cit = NC(=O)NCCC[C@H](N)C(=O)O; Aib = CC(C)(N)C(=O)O Where only a bound is given, the exact number is not on record here.

T1 sequence (P32245 whole entry): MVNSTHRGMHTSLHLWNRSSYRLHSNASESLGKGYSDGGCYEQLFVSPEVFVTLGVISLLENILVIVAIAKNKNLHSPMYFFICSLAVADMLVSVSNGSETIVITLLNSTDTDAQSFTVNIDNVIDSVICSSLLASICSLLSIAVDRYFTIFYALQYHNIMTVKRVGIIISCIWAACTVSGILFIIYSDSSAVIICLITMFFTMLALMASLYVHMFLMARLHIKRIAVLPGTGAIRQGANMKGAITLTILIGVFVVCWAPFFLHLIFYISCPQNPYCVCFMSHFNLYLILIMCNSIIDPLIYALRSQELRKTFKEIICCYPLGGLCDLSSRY

The first assay has as its target T1, human MC4R receptor (human, UniProt P32245 1-332). As to the kind of experiment: cell-based or functional assay.
B1: the “MC4R selectivity vs MC1R” value was found to be 9.04 and the “MC4R selectivity vs MC3R” value was determined as 42.

In the case of B2, the “MC4R selectivity vs MC1R” value was determined as 13 and the “MC4R selectivity vs MC3R” value was 29.

Take B3: the “MC4R selectivity vs MC1R” value was determined as 3.66 and the “MC4R selectivity vs MC3R” value was 30.

For the molecule B4, the “MC4R selectivity vs MC1R” value is 1820 and the “MC4R selectivity vs MC3R” value came out at 28.

Consider B5, for which the “MC4R selectivity vs MC1R” value is 1.19 and the “MC4R selectivity vs MC3R” value turned out to be 5.7.

On to B6, for which the “MC4R selectivity vs MC1R” value was 8.32 and the “MC4R selectivity vs MC3R” value is 2.82.

Consider B7, for which the “MC4R selectivity vs MC1R” value was > 770 and the “MC4R selectivity vs MC3R” value came out at 193.

B8: the “MC4R selectivity vs MC1R” value came out at 4.84 and the “MC4R selectivity vs MC3R” value was determined as 53.

In the case of B9, the “MC4R selectivity vs MC1R” value is 261 and the “MC4R selectivity vs MC3R” value was determined as 133.

On to B10, for which the “MC4R selectivity vs MC1R” value is 3.18 and the “MC4R selectivity vs MC3R” value was 36.

As to B11, the “MC4R selectivity vs MC1R” value was 191 and the “MC4R selectivity vs MC3R” value came out at 6.37.

In the case of B12, the “MC4R selectivity vs MC1R” value was determined as 1.04 and the “MC4R selectivity vs MC3R” value was 1.66.

On to B13, for which the “MC4R selectivity vs MC1R” value came out at 4.02 and the “MC4R selectivity vs MC3R” value worked out at 6.68.

As for B14, the “MC4R selectivity vs MC1R” value came out at 942 and the “MC4R selectivity vs MC3R” value was found to be 104.

In the case of B15, the “MC4R selectivity vs MC1R” value stood at 15 and the “MC4R selectivity vs MC3R” value was 19.

For the molecule B16, the “MC4R selectivity vs MC1R” value was > 12 and the “MC4R selectivity vs MC3R” value is 9.44.

A further assay has as its target T1, human MC4R receptor. As to the kind of experiment: cell-based or functional assay. The source holds these as a separate data set.
Take B1: the “% max activation” value was 110% and the “cAMP EC50” value stood at 1.6 nM.

For B2, the “% max activation” value turned out to be 107% and the “cAMP EC50” value stood at 2.9 nM.

Consider B3, for which the “% max activation” value turned out to be 109% and the “cAMP EC50” value came to 0.68 nM.

Take B4: the “% max activation” value was found to be 102% and the “cAMP EC50” value turned out to be 22 nM.

B5: the “% max activation” value was found to be 112% and the “cAMP EC50” value came out at 67 nM.

Consider B6, for which the “% max activation” value is 88% and the “cAMP EC50” value worked out at 2730 nM.

As to B7, the “% max activation” value came to 103% and the “cAMP EC50” value came out at 13 nM.

Turning to B8, the “% max activation” value was 111% and the “cAMP EC50” value is 2.3 nM.

Regarding B9, the “% max activation” value was 111% and the “cAMP EC50” value was 19 nM.

With B10, the “% max activation” value was determined as 105% and the “cAMP EC50” value was 0.51 nM.

As to B11, the “% max activation” value was found to be 99% and the “cAMP EC50” value was found to be 14 nM.

As to B12, the “% max activation” value was 110% and the “cAMP EC50” value turned out to be 351 nM.

For B13, the “% max activation” value was determined as 107% and the “cAMP EC50” value amounted to 8.5 nM.

Turning to B14, the “% max activation” value was 110% and the “cAMP EC50” value was found to be 2.8 nM.

As for B15, the “% max activation” value is 102% and the “cAMP EC50” value is 0.67 nM.

Regarding B16, the “% max activation” value worked out at 102% and the “cAMP EC50” value came to 791 nM.

For the next assay, the target named is human MC3R (human, UniProt P41968 1-323). As to the kind of experiment: cell-based or functional assay.
Sequence of human MC3R (P41968 whole entry): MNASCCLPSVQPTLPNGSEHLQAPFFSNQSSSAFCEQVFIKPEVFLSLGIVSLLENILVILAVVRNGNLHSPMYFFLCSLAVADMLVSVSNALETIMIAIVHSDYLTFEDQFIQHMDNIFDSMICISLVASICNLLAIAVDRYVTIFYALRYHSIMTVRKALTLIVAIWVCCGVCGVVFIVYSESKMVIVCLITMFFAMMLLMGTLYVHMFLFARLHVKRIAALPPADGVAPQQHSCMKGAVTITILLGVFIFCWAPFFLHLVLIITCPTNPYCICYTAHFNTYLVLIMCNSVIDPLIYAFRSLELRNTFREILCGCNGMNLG
With B1, the “% max activation” value stood at 97% and the “cAMP EC50” value is 68 nM.

With B2, the “% max activation” value came out at 90% and the “cAMP EC50” value came out at 83 nM.

Consider B3, for which the “% max activation” value came to 102% and the “cAMP EC50” value was 21 nM.

Take B4: the “% max activation” value was determined as 35% and the “cAMP EC50” value worked out at 614 nM.

Take B5: the “% max activation” value was found to be 70% and the “cAMP EC50” value is 380 nM.

As for B6, the “% max activation” value turned out to be 44% and the “cAMP EC50” value was determined as 7690 nM.

For B7, the “% max activation” value was found to be 70% and the “cAMP EC50” value came out at 2420 nM.

Take B8: the “% max activation” value stood at 107% and the “cAMP EC50” value was 120 nM.

Turning to B9, the “% max activation” value was found to be 81% and the “cAMP EC50” value was 2550 nM.

Take B10: the “% max activation” value is 77% and the “cAMP EC50” value worked out at 19 nM.

With B11, the “% max activation” value stood at 45% and the “cAMP EC50” value amounted to 92 nM.

With B12, the “% max activation” value was 75% and the “cAMP EC50” value was determined as 408 nM.

B13: the “% max activation” value was determined as 94% and the “cAMP EC50” value turned out to be 56 nM.

Take B14: the “% max activation” value is 45% and the “cAMP EC50” value worked out at 290 nM.

Regarding B15, the “% max activation” value is 83% and the “cAMP EC50” value was determined as 13 nM.

With B16, the “% max activation” value was 44% and the “cAMP EC50” value came out at 7460 nM.
